The text below walks through data of article PMC5522101.

Usually Kd stands for the equilibrium constant for the complex coming apart.

The target in this experiment is VPAC1-C37/A-EYFP (Cys37/Ala mutant of VPAC1 fused with enhanced yellow fluorescent protein) (mouse (stated for the cDNA; the primers of Table 1 and residues 31-457 fit human VPAC1)) (UniProt P97751). The experiment in a line: radioligand binding; competition binding on the cell membrane fraction of CHO cells (50 ug protein/ml): 1 nM [125I]-VIP with or without unlabelled VIP, 60 min at 30°C at equilibrium; nonspecific binding with 2 uM unlabelled peptide; data calibrated by the EYFP fluorescence of the membrane fraction.

In the case of HSDAVFTDNYTRLRKQMAVKKYLNSILN [vasoactive intestinal peptide], the equilibrium dissociation constant (Kd) was found to be 0.42 nM.
